The source of these data is PMC9636267 (Communications Biology, 2022).

The experiment concerns the target T1, HCoV-229E S ectodomain (17–1115 aa), 229E S trimer (human coronavirus 229E, UniProt P15423 17-1115).
T1 sequence (looked up): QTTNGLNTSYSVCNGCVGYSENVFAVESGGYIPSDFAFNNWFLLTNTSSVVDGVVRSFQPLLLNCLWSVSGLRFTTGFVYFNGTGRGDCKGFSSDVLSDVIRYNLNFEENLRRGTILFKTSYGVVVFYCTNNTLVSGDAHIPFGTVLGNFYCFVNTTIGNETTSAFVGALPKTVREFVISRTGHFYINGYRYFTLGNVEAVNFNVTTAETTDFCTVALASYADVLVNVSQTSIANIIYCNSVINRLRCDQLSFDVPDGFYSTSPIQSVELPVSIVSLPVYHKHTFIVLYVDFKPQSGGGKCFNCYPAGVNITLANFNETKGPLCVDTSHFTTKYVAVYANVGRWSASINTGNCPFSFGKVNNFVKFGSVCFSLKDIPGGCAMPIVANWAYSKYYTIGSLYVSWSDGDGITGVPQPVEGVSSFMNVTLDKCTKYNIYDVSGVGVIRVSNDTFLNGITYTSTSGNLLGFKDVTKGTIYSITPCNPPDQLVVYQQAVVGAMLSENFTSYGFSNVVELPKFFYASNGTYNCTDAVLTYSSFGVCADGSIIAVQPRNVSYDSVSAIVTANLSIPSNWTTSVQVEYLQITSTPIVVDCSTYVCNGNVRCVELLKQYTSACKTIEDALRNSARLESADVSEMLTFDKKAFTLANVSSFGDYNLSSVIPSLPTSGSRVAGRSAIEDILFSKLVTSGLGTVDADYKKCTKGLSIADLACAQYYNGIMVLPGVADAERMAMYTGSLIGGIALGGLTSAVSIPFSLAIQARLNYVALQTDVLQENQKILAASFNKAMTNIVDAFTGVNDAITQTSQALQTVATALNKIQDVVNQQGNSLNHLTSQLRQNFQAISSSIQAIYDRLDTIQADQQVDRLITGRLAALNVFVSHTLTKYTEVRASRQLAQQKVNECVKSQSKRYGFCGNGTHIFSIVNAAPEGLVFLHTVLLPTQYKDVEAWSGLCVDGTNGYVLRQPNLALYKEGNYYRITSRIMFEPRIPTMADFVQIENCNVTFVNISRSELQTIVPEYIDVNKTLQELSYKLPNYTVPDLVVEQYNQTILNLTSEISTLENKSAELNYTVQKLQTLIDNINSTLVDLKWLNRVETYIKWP
The experiment can be described thus: SPR. The conditions noted are these: both partners purified.

B1: human aminopeptidase N (hAPN), soluble ectodomain (66–967 aa) (receptor, UniProt P15144 66-967, looked up)
chain: DQSKAWNRYRLPNTLKPDSYRVTLRPYLTPNDRGLYVFKGSSTVRFTCKEATDVIIIHSKKLNYTLSQGHRVVLRGVGGSQPPDIDKTELVEPTEYLVVHLKGSLVKDSQYEMDSEFEGELADDLAGFYRSEYMEGNVRKVVATTQMQAADARKSFPCFDEPAMKAEFNITLIHPKDLTALSNMLPKGPSTPLPEDPNWNVTEFHTTPKMSTYLLAFIVSEFDYVEKQASNGVLIRIWARPSAIAAGHGDYALNVTGPILNFFAGHYDTPYPLPKSDQIGLPDFNAGAMENWGLVTYRENSLLFDPLSSSSSNKERVVTVIAHELAHQWFGNLVTIEWWNDLWLNEGFASYVEYLGADYAEPTWNLKDLMVLNDVYRVMAVDALASSHPLSTPASEINTPAQISELFDAISYSKGASVLRMLSSFLSEDVFKQGLASYLHTFAYQNTIYLNLWDHLQEAVNNRSIQLPTTVRDIMNRWTLQMGFPVITVDTSTGTLSQEHFLLDPDSNVTRPSEFNYVWIVPITSIRDGRQQQDYWLIDVRAQNDLFSTSGNEWVLLNLNVTGYYRVNYDEENWRKIQTQLQRDHSAIPVINRAQIINDAFNLASAHKVPVTLALNNTLFLIEERQYMPWEAALSSLSYFKLMFDRSEVYGPMKNYLKKQVTPLFIHFRNNTNNWREIPENLMDQYSEVNAISTACSNGVPECEEMVSGLFKQWMENPNNNPIHPNLRSTVYCNAIAQGGEEEWDFAWEQFRNATLVNEADKLRAALACSKELWILNRYLSYTLNPDLIRKQDATSTIISITNNVIGQGLVWDFVQSNWKKLFNDYGGGSFSFSNLIQAVTRRFSTEYELQQLEQFKKDNEETGFGSGTRALEQALEKTKANIKWVKENKEVVLQWFTENSK
notes: also called recombinant hAPN protein
As to B1, the binding result is “binds”.
